Experimental data: patent US12612650B2, “Methods for improved homologous recombination and compositions thereof” (LIFE TECHNOLOGIES CORPORATION, priority 2017, dated 2026)
“And” between values parts separate entries of the source, which are not always exact repeats. Equal entries are not always repeated. Marks after values point to notes of the source that are not given here.

Key:
beta-actin locus = assay: Junction PCR and sequencing of clonal 293FT cells, integration at beta-actin locus; format: cell-based, human
Experimental: (§1) 293FT or A549 cells were maintained in DMEM medium supplemented with 10% FBS. On the day of transfection, cells were detached from the culture flask and counted. For each electroporation, 1.5 μg of Cas9 protein and 360 ng of gRNA were added to Resuspension Buffer R to a final volume of 7 μl, but the total volume of Cas9 protein plus gRNA added was less than 1 μl. Upon mixing, the sample was incubated at room temperature for 5 to 10 minutes to form Cas9 RNPs complex. Meanwhile, aliquots of 1×10^6 cells were washed once with DPBS without Ca^2+ and Mg^2+ and the cell pellets were resuspended in 50 μl of Resuspension Buffer R. A 5 μl aliquot of cell suspension was then mixed with 7 μl of Cas9 RNPs, followed by addition of 1 μl indicated amount of donor DNA. 10 μl of cell suspension containing Cas9 RNP and donor was applied to NEON® electroporation (Thermo Fisher Scientific, cat. no. MPK5000) with voltage set at 1150V, pulse width set at 20 ms, and the number of pulses set at 2, respectively. The electroporated cells were transferred to a 48-well plate containing 0.5 ml culture media. Samples without either gRNA or donor DNA served as controls. At 48 hours post transfection, the cells were analyzed by flow cytometry. Alternatively, the genomic loci were PCR-amplified with the corresponding primers. The resulting PCR fragments were analyzed using the GENEART® Genomic Cleavage Detection assay. The edited cells were further subjected to limiting dilution, followed by clonal cell isolation. The clonal cells were characterized by PCR amplification of both the N- and C-terminal junctions and sequencing. The sequencing data were analyzed using VECTOR NTI ADVANCE® 11.5 software (Thermo Fisher Scientific).
To examine the identity of integration sites, cells transfected with Cas9 RNP and donor DNA were subjected to puromycin selection, limiting dilution, and clonal cell isolation. A total of 48 colonies were randomly picked for junction PCR analysis. […] All the other 47 colonies gave rise to PCR products for both N- and C-terminal junctions when one outer primer and one inner primer were used. The PCR product was also observed when a pair of outer primers was used with the size of about 420 bp, which corresponded to the genomic DNA fragment without an insert. The reason why a large PCR product containing the insert was not observed was because the smaller DNA fragment without the insert was preferentially amplified. […] The other 18% of clonal cells also contained the insert but had mutations at the junction areas (FIG. 3A(2)). Most of the mutations were deletion and insertion. Sometimes a duplicate sequence of a partial or full-length homology arm was inserted at the junction. At the C-terminal junction, approximately 78% of the clonal cells harbored precise HDR (FIG. 3B(1)) whereas the other 22% of cells had Indel formation at the junction (FIG. 3B(2)). Rarely, a relatively large piece of donor DNA (up to 165 nt) was deleted at the C-terminal junction. Overall, all the clonal cells contained one copy of donor DNA at the right genomic locus in one of the alleles with 68% of cells harbored precise HDR at both N- and C-termini and 32% of cells harbored imperfect HDR at either N- or C-terminus or both. […] Instead, approximately 80% of the clones had one “A” insertion at the Cas9 cleavage site and 20% of the clones harbored more than 2 nt deletion. Only one wild type clone was detected at the second allele (FIG. 3C). Most of the clones expressed both wild type beta-actin and OFP fusion of beta-actin as confirmed by Western Blot analysis.
To characterize each clonal cell in the stable pool, we performed limiting dilution and clonal cell isolation. The junctions of integration were analyzed by PCR and sequencing. As depicted in FIGS. 8B and 8C, approximately 88% of clonal cells harbored precise integration at N-terminal junction whereas 12% of clonal cells had some extra sequences inserted at the junction. […]

[1] = system: genomic locus of beta-actin; assay: OFP-positive cells by flow cytometry after electroporation of Cas9 RNP and donor DNA into 293FT cells; format: cell-based, human
Experimental: as §1
To evaluate the strategy of tagging endogenous protein, we fused the OFP gene to the N-terminus of beta-actin. Beta-actin is one of the most abundant proteins in eukaryotes, so it is easy to monitor using fluorescence microscopy. A gRNA was designed and synthesized to target the genomic locus of beta-actin near the ATG start codon (Table 12) and then complexed with Cas9 nuclease to form RNPs. The relevant 35 nt homology arms were added to a sequence-verified promoterless puromycin-P2A-OFP DNA fragment by PCR amplification. The resulting donor PCR fragments were purified using PureLink™ PCR Purification Kit and then concentrated using a speed-vac to a final concentration of around 1 μg/μl. To examine the effect of donor dosage on HDR efficient, we kept the amount of Cas9 RNP constant and varied the amount of donor DNA. The Cas9 RNP and donor DNA were transfected into 293 FT via electroporation. At 48 hours post transfection, the cells were analyzed by fluorescence microscope. When the cells were transfected with Cas9 RNP alone or Cas9 protein with donor DNA, no OFP-positive cells were detected, whereas OFP-positive cells were observed when cells were transfected with Cas9 RNP and donor DNA. The percentages of OFP-positive cells were determined by flow cytometric analysis. Without selection, the percentage of OFP-positive cells increased from approximately 5% to 20% when the amount of donor DNA increased from 25 ng to 500 ng (FIG. 2A). The optimal amount of donor DNA was around 500 ng per reaction. On the other hand, after treatment of transfected cells with 1 μg/ml puromycin for 7 days, approximately 80% of cells were OFP-positive. There was no significant difference in the percentage of OFP-positive cells between different amounts of donor DNA (FIG. 2A). Next, we examined the effect of homology arm length on HDR efficiency. Various lengths of homology arms were added to the promoterless puromycin-P2A-OFP DNA fragment by PCR amplification. As depicted in FIG. 2B, when the homology arm length increased from 12 nt to 80 nt, the percentage of OFP-positive cells increased and then plateaued at around 35 nt.
Traditionally, a plasmid donor was used to incorporate large DNA molecules into the genome. […]

[2] = Beta-actin, N-terminus, 293FT clonal cells

B1: puromycin-P2A-OFP: donor DNA, 1.4 kb: promoterless puromycin-P2A-OFP fragment with 35 nt homology arms to the beta-actin locus (nucleic acid)
DNA: CACAGCGCGCCCGGCTATTCTCGCAGCTCACCATGACCGAGTACAAGCCCACAGTGCGGCTGGCCACCAGGGACGATGTGCCTAGAGCTGTGCGGACACTGGCCGCTGCCTTCGCCGATTACCCTGCCACCAGACACACCGTGGACCCCGACAGACACATCGAGAGAGTGACCGAGCTGCAGGAACTGTTTCTGACCAGAGTGGGCCTGGACATCGGCAAAGTGTGGGTGGCCGATGATGGCGCCGCTGTGGCTGTGTGGACAACCCCTGAGTCTGTGGAAGCCGGCGCTGTGTTCGCCGAGATCGGACCTAGAATGGCCGAGCTGAGCGGCTCTAGACTGGCTGCCCAGCAGCAGATGGAAGGCCTGCTGGCCCCCCACAGACCTAAAGAGCCTGCCTGGTTTCTGGCCACCGTGGGCGTGTCACCTGACCACCAGGGCAAGGGACTGGGATCTGCTGTGGTGCTGCCTGGCGTGGAAGCTGCTGAAAGGGCTGGCGTGCCCGCCTTCCTGGAAACAAGCGCCCCCAGAAACCTGCCCTTCTACGAGAGACTGGGCTTCACCGTGACCGCCGACGTGGAAGTGCCTGAGGGCCCTAGAACCTGGTGCATGACCAGAAAGCCTGGCGCCGGAAGCGGAGCTACTAACTTCAGCCTGCTGAAGCAGGCTGGAGACGTGGAGGAGAACCCTGGACCTAACCTGAGCAAAAACGTGAGCGTGAGCGTGTATATGAAGGGGAACGTCAACAATCATGAGTTTGAGTACGACGGGGAAGGTGGTGGTGATCCTTATACAGGTAAATATTCCATGAAGATGACGCTACGTGGTCAAAATTCCCTACCCTTTTCCTATGATATCATTACCACGGCATTTCAGTATGGTTTCCGCGTATTTACAAAATACCCTGAGGGAATTGTTGACTATTTTAAGGATTCGCTTCCCGACGCATTCCAGTGGAACAGACGAATTGTGTTTGAAGATGGTGGAGTACTAAACATGAGCAGTGATATCACATATAAAGATAATGTTCTGCATGGTGACGTCAAGGCTGAGGGAGTGAACTTCCCGCCGAATGGGCCAGTGATGAAGAATGAAATTGTGATGGAGGAACCGACTGAAGAAACATTTACTCCAAAAAACGGGGTTCTTGTTGGCTTTTGTCCCAAAGCGTACTTACTTAAAGATGGTTCCTATTACTATGGAAATATGACAACATTTTACAGATCCAAGAAATCTGGCCAGGCACCTCCTGGGTATCACTTTGTTAAGCATCGTCTCGTCAAGACCAATGTGGGACATGGATTTAAGACGGTTGAGCAGACTGAATATGCCACTGCTCATGTCAGTGATCTTCCCAAATTCGAAGCTGATGATGATATCGCCGCGCTCGTCGTCGACAACGG
modifications: misc_feature 1..1402 Description of Unknown: Beta Actin sequence
notes: donor DNA, 1.4 kb: promoterless puromycin-P2A-OFP fragment with 35 nt homology arms to the beta-actin locus
beta-actin locus; [2]
  Efficiency at allele 1 HDR/Indel: 32%
  Efficiency at allele 2 No HDR/Indel: 100%
  Efficiency at allele 2 Precise HDR: 0%
beta-actin locus; beta-actin locus, 293FT
  clonal cells with Indel formation / small mutations at the C-terminal junction: 22%
  clonal cells with mutations or extra sequences at the N-terminal junction: 18%
  clonal cells with precise HDR / correct junction at the C-terminal junction: approximately 78%
  clonal cells with precise HDR at the N-terminal junction: approximately 82%
beta-actin locus; second allele
  clones wild type (wt): 2%
beta-actin locus; second allele (no insert)
  clones with more than 2 nt deletion: 18% and 20%
  clones with one 'A' insertion at the Cas9 cleavage site: approximately 80%
[1]; after 1 μg/ml puromycin for 7 days
  percentage of OFP-positive cells: approximately 80%
[1]; determined by flow cytometry
  % of functional Cells: 80%^a
[1]; homology arm length 12 nt to 80 nt
  homology arm length at which percentage of OFP-positive cells plateaued: around 35 nt
[1]; without selection
  optimal amount of donor DNA: around 500 ng per reaction
[1]; without selection, 25 ng donor DNA, 48 hours post transfection
  percentage of OFP-positive cells: approximately 5%
[1]; without selection, 500 ng donor DNA, 48 hours post transfection
  percentage of OFP-positive cells: ~20%
